Patent US20220169740A1 (KINDRED BIOSCIENCES, published 2022)
Where “and” joins values, the source holds several entries; their conditions need not be identical. Identical values can stand only once.

What was measured:
[1] = biological target: T1, human NGF (Sino Biological, Inc.; Catalog No. 11050-HNAC) (human, UniProt P01138 122-241, limits assumed, biotinylated in the Octet assay of Example 3 (sites not given); not biotinylated in the TF1 assay); assay: BLI (Octet); biotinylated human NGF on streptavidin tips, TrkA-Fc 25 ug/mL; 1:1 fit
T1 construct: also called nerve growth factor; biotinylated NGF
Description: Binding activity of canine, feline, and equine TrkA ECD v2 and v3 fusion polypeptides prepared in Example 2 (SEQ ID NOs: 16, 17, 19, 20, 22, and 23) to commercially-available human NGF was considered. The binding analysis was performed using a biosensor Octet as follows. Briefly, human NGF (Sino Biological, Inc.; Catalog No. 11050-HNAC) was biotinylated. The free unreacted biotin was removed from biotinylated NGF by extensive dialysis. Biotinylated NGF was captured on streptavidin sensor tips. The association of NGF with TrkA-Fc (25 ug/mL) was monitored for 600 seconds. Dissociation was monitored for 600 seconds. A buffer only blank curve was subtracted to correct for any drift. The data were fit to a 1:1 binding model using ForteBio™ data analysis software to determine the kₒₙ, koff, and the Kd. The buffer for dilutions and all binding steps was: 20 mM phosphate, 150 mM NaCl, pH 7.2.
FIG. 1 and FIG. 2 are sensorgrams showing that canine, feline, and equine TrkA ECD v2 and v3 fusion polypeptides all bind NGF. […] Irrelevant canine and feline IgG-Fc fusion proteins were used as a negative control.

[2] = biological target: human C1q (human, UniProt P02745 23-245; P02746 28-253; P02747 29-245); assay: method not described
[3] = biological target: T2, canine FcRn with a poly-His tag / canine B2M heterodimer complex (canine, biotinylated where immobilised on the Biacore chip); assay: SPR (Biacore T200), steady state, 25 C, pH 6.0; SASA-tagged Fc polypeptide immobilised on CM5 chip, canine FcRn/B2M complex 12.5-200 nM as analyte
T2 construct: Made in HEK cells, Ni-NTA purified; also called canine FcRn/B2M complex; soluble canine FcRn/B2M complex
T2 chain: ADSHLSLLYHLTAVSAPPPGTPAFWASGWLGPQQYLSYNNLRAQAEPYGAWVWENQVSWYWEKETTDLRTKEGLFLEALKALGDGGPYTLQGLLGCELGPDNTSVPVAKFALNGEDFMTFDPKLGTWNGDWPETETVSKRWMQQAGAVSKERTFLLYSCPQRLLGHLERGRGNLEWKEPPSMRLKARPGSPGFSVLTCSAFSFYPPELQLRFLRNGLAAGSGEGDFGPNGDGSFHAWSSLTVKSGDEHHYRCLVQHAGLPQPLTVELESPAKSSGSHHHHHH
T2 b2m: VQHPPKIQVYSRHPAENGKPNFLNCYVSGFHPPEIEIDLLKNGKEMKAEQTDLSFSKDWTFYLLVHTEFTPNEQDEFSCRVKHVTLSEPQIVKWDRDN
Description: Binding analysis was performed using a Biacore T200. Briefly, the lead variant canine IgG-B Fc polypeptides with an SASA tag were each immobilized to a Series S Sensor Chip CM5. […] A running buffer of 10 mM HEPES, 500 mM NaCl, 3 mM EDTA, 0.005% Tween-20, pH 6.0 was used. A buffer only blank curve was used as a control.

[4] = biological target: T2, canine FcRn with a poly-His tag / …; assay: SPR (Biacore T200), pH 6.0; biotinylated canine FcRn/B2M complex immobilised, Fc polypeptide as analyte
Text: The koff of each of the lead variant canine IgG-B polypeptides was further investigated. Biotinylated canine FcRn/B2M complex was immobilized on a Biacore chip and exposed to each variant canine IgG-B polypeptide as an analyte using a Biacore T200 at pH 6.0.

T1 sequence (P01138 122-241 limits assumed): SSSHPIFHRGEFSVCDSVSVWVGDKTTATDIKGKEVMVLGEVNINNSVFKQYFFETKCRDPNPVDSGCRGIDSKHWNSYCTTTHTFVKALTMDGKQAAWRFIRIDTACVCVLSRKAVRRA
human C1q, sequence (P02745 23-245 limits assumed, chain 1 of 3): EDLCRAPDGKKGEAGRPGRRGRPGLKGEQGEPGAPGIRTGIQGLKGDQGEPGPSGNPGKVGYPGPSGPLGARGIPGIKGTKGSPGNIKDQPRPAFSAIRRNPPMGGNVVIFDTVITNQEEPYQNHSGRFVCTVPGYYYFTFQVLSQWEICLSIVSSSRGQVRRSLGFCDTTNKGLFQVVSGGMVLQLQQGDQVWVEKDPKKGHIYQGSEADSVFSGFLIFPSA
human C1q, sequence (P02746 28-253 limits assumed, chain 2 of 3): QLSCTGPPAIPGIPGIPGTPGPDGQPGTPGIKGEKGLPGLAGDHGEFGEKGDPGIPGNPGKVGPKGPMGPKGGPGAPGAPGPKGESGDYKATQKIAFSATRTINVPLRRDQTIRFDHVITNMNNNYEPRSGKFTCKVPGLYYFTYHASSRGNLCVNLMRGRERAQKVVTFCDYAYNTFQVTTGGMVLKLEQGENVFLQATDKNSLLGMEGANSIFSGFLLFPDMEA
human C1q, sequence (P02747 29-245 limits assumed, chain 3 of 3): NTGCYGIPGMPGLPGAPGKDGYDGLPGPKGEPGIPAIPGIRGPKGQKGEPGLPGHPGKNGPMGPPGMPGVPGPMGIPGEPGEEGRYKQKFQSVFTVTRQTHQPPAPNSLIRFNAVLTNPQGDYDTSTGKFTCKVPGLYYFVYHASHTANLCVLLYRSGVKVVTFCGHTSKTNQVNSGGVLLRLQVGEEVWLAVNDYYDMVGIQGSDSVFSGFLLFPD

Binder | Kd [1] [nM] | Kd [3] [nM] | koff [4] | also measured
Canine TrkA ECD v2-wildtype canine IgG-B Fc (Fc fusion, made in CHO cells; also called canine TrkA ECD v2 fusion polypeptide; canine TrkA v2) VSFPASVQLHEAVELHHWCIPFSVDGQPAPSLRWLFNGSVLNETSFIFTEFLEPVANETVRHGCLRLNQPTHVNNGNYTLLAANPSGRAAAFVMAAFMDNPFEFNPEDPIPVSFSPVDTNSTSGDSGGGSGGGSRPPDCPKCPAPEMLGGPSVFIFPPKPKDTLLIARTPEVTCVVVDLDPEDPEVQISWFVDGKQMQTAKTQPREEQFNGTYRVVSVLPIGHQDWLKGKQFTCKVNNKALPSPIERTISKARGQAHQPSVYVLPPSREELSKNTVSLTCLIKDFFPPDIDVEWQSNGQQEPESKYRTTPPQLDEDGSYFLYSKLSVDKSRWQRGDTFICAVMHEALHNHYTQESLSHSPGK | ~1 |  |  | 
Feline TrkA ECD v2-wildtype feline IgG2 Fc (Fc fusion, CHO; also called feline TrkA ECD v2 fusion polypeptide; feline TrkA v2) VSFPASVQLHAAVELHHWCIPFSVDGQPAPSLRWLFNGSVLNETSFIFTEFLEPAANETVRHGCLRLNQPTHVNNGNYTLLAANPSGRAAASVLAAFMDNPFEFNPEDPIPVSFSPVDSNSTSGDSGGGSGGGSPKTASTIESKTGEGPKCPVPEIPGAPSVFIFPPKPKDTLSISRTPEVTCLVVDLGPDDSNVQITWFVDNTEMHTAKTRPREEQFNSTYRVVSVLPILHQDWLKGKEFKCKVNSKSLPSAMERTISKAKGQPHEPQVYVLPPTQEELSENKVSVTCLIKGFHPPDIAVEWEITGQPEPENNYQTTPPQLDSDGTYFLYSRLSVDRSHWQRGNTYTCSVSHEALHSHHTQKSLTQSPGK | ~1 |  |  | 
Equine TrkA ECD v3-variant equine IgG2 Fc (Protein A+, C1q-, CD16-) (Fc fusion, CHO; also called equine TrkA ECD v3 fusion polypeptide; equine TrkA v3) VSFPASVHLQTAVEQHHWCIPFSVDGQPAPTLRWLFNGSVLNETSFIFTEFLESAANETMRHGCLRLNQPTHVNNGNYTLLATNPYGQDSASVMVAFMDNPPPCVLSAEGVIPIPSVPKPQCPPYTHSKFLGGPSVFIFPPNPKDTLMISRTPVVTCVVVNLSDQYPDVQFSWYVDNTEVHSAITKQREAQFNSTYRVVSVLPIQHQDWLSGKEFKCSVTNVGVPQPISRAISRGKGPSRVPQVYVLPPHPDELAKSKVSVTCLVKDFYPPDISVEWQSNRWPELEGKYSTTPAQLDGDGSYFLYSKLSLETSRWQQVESFTCAVMHEALHNHYTKTDISESLGK | ~1 |  |  | 
fusion protein comprising wild-type canine IgG-B Fc (Fc fusion, not shown: large carriers) PAPEMLGGPSVFIFPPKPKDTLLIARTPEVTCVVVDLDPEDPEVQISWFVDGKQMQTAKTQPREEQFNGTYRVVSVLPIGHQDWLKGKQFTCKVNNKALPSPIERTISKARGQAHQPSVYVLPPSREELSKNTVSLTCLIKDFFPPDIDVEWQSNGQQEPESKYRTTPPQLDEDGSYFLYSKLSVDKSRWQRGDTFICAVMHEALHNHYTQESLSHSPGK |  |  |  | binding result [2]: binds
wild-type canine IgG-B Fc polypeptide (other, Expressed from plasmid pFASEBA in E. coli with an SASA tag; also called wildtype IgG-B Fc polypeptide; not shown: SASA tag) PAPEMLGGPSVFIFPPKPKDTLLIARTPEVTCVVVDLDPEDPEVQISWFVDGKQMQTAKTQPREEQFNGTYRVVSVLPIGHQDWLKGKQFTCKVNNKALPSPIERTISKARGQAHQPSVYVLPPSREELSKNTVSLTCLIKDFFPPDIDVEWQSNGQQEPESKYRTTPPQLDEDGSYFLYSKLSVDKSRWQRGDTFICAVMHEALHNHYTQESLSHSPGK |  | 1250 | 0.122 s⁻¹ | 
fusion protein comprising variant canine IgG-B Fc K(93)R (Fc fusion, not shown: large carriers, also called variant canine IgG-B Fc K(93)R fusion protein) PAPEMLGGPSVFIFPPKPKDTLLIARTPEVTCVVVDLDPEDPEVQISWFVDGKQMQTAKTQPREEQFNGTYRVVSVLPIGHQDWLKGKQFTCRVNNKALPSPIERTISKARGQAHQPSVYVLPPSREELSKNTVSLTCLIKDFFPPDIDVEWQSNGQQEPESKYRTTPPQLDEDGSYFLYSKLSVDKSRWQRGDTFICAVMHEALHNHYTQESLSHSPGK |  |  |  | binding result [2]: binds
variant canine IgG-B Fc polypeptide L(23)Y (other, E. coli expressed, with SASA tag; also called Y00; not shown: SASA tag) PAPEMLGGPSVFIFPPKPKDTLYIARTPEVTCVVVDLDPEDPEVQISWFVDGKQMQTAKTQPREEQFNGTYRVVSVLPIGHQDWLKGKQFTCKVNNKALPSPIERTISKARGQAHQPSVYVLPPSREELSKNTVSLTCLIKDFFPPDIDVEWQSNGQQEPESKYRTTPPQLDEDGSYFLYSKLSVDKSRWQRGDTFICAVMHEALHNHYTQESLSHSPGK |  | 113 | 0.0138 s⁻¹ | 
variant canine IgG-B Fc polypeptide L(23)F (other, E. coli expressed, with SASA tag; also called F00; not shown: SASA tag) PAPEMLGGPSVFIFPPKPKDTLFIARTPEVTCVVVDLDPEDPEVQISWFVDGKQMQTAKTQPREEQFNGTYRVVSVLPIGHQDWLKGKQFTCKVNNKALPSPIERTISKARGQAHQPSVYVLPPSREELSKNTVSLTCLIKDFFPPDIDVEWQSNGQQEPESKYRTTPPQLDEDGSYFLYSKLSVDKSRWQRGDTFICAVMHEALHNHYTQESLSHSPGK |  | 367 | 0.0631 s⁻¹ and 0.0847 s⁻¹ | 
variant canine IgG-B Fc polypeptide YTE (other, not shown: small tags and cut ends, also called Leu23Tyr Ala25Thr Thr27Glu) PAPEMLGGPSVFIFPPKPKDTLYITREPEVTCVVVDLDPEDPEVQISWFVDGKQMQTAKTQPREEQFNGTYRVVSVLPIGHQDWLKGKQFTCKVNNKALPSPIERTISKARGQAHQPSVYVLPPSREELSKNTVSLTCLIKDFFPPDIDVEWQSNGQQEPESKYRTTPPQLDEDGSYFLYSKLSVDKSRWQRGDTFICAVMHEALHNHYTQESLSHSPGK |  | 86.2 |  | 
variant canine IgG-B Fc polypeptide L(23)M (other, not shown: SASA tag) PAPEMLGGPSVFIFPPKPKDTLMIARTPEVTCVVVDLDPEDPEVQISWFVDGKQMQTAKTQPREEQFNGTYRVVSVLPIGHQDWLKGKQFTCKVNNKALPSPIERTISKARGQAHQPSVYVLPPSREELSKNTVSLTCLIKDFFPPDIDVEWQSNGQQEPESKYRTTPPQLDEDGSYFLYSKLSVDKSRWQRGDTFICAVMHEALHNHYTQESLSHSPGK |  | 406 | 0.126 s⁻¹ | 
variant canine IgG-B polypeptide L(23)S (other, not shown: SASA tag) PAPEMLGGPSVFIFPPKPKDTLSIARTPEVTCVVVDLDPEDPEVQISWFVDGKQMQTAKTQPREEQFNGTYRVVSVLPIGHQDWLKGKQFTCKVNNKALPSPIERTISKARGQAHQPSVYVLPPSREELSKNTVSLTCLIKDFFPPDIDVEWQSNGQQEPESKYRTTPPQLDEDGSYFLYSKLSVDKSRWQRGDTFICAVMHEALHNHYTQESLSHSPGK |  |  | 0.241 s⁻¹ | 
Canine TrkA ECD v3-wildtype canine IgG-B Fc (Fc fusion, CHO; also called canine TrkA ECD v3 fusion polypeptide; canine TrkA v3) VSFPASVQLHEAVELHHWCIPFSVDGQPAPSLRWLFNGSVLNETSFIFTEFLEPVANETVRHGCLRLNQPTHVNNGNYTLLAANPSGRAAAFVMAAFMDNPSGGGSGGGSRPPDCPKCPAPEMLGGPSVFIFPPKPKDTLLIARTPEVTCVVVDLDPEDPEVQISWFVDGKQMQTAKTQPREEQFNGTYRVVSVLPIGHQDWLKGKQFTCKVNNKALPSPIERTISKARGQAHQPSVYVLPPSREELSKNTVSLTCLIKDFFPPDIDVEWQSNGQQEPESKYRTTPPQLDEDGSYFLYSKLSVDKSRWQRGDTFICAVMHEALHNHYTQESLSHSPGK | ~1 |  |  | 
Feline TrkA ECD v3-wildtype feline IgG2 Fc (Fc fusion, CHO; also called feline TrkA ECD v3 fusion polypeptide; feline TrkA v3) VSFPASVQLHAAVELHHWCIPFSVDGQPAPSLRWLFNGSVLNETSFIFTEFLEPAANETVRHGCLRLNQPTHVNNGNYTLLAANPSGRAAASVLAAFMDNPSGGGSGGGSPKTASTIESKTGEGPKCPVPEIPGAPSVFIFPPKPKDTLSISRTPEVTCLVVDLGPDDSNVQITWFVDNTEMHTAKTRPREEQFNSTYRVVSVLPILHQDWLKGKEFKCKVNSKSLPSAMERTISKAKGQPHEPQVYVLPPTQEELSENKVSVTCLIKGFHPPDIAVEWEITGQPEPENNYQTTPPQLDSDGTYFLYSRLSVDRSHWQRGNTYTCSVSHEALHSHHTQKSLTQSPGK | ~1 |  |  | 
